In paper PMC4038756 (Theranostics, 2014):
“And” between values parts separate entries of the source, which are not always exact repeats. Equal entries are not always repeated.

How the values were obtained:
Format in all cases: in vivo, NOD/SCID mice
[1] = Small animal PET/CT imaging, H460 tumor bearing mice; conditions: NOD/SCID, mouse, iv, total radioactivity
H460 (αvβ6^-) xenografts = test: as above; conditions: H460 tumor bearing mice, quantitative PET, mean ± s.d., n = 3
[2] = Small animal PET/CT imaging, H2009 tumor bearing mice; conditions: NOD/SCID, mouse, iv, total radioactivity
[3] = system: H2009 (αvβ6^+) xenografts; test: as above; conditions: for Tumor uptake / Tumor/Lung: H2009 tumor bearing mice, n = 3; for Tumor uptake: quantitative PET, mean ± s.d.; for Tumor/Lung: ratio of PET uptakes

| SMILES | tissue uptake at 1 h ([1]; heart) [%ID/g] | tissue uptake at 4 h ([1]; heart) [%ID/g] | tissue uptake at 24 h ([1]; heart) [%ID/g] | tissue uptake at 1 h ([1]; kidney) [%ID/g] | tissue uptake at 4 h ([1]; kidney) [%ID/g] | tissue uptake at 24 h ([1]; kidney) [%ID/g] | tissue uptake at 1 h ([1]; liver) [%ID/g] | tissue uptake at 4 h ([1]; liver) [%ID/g] | tissue uptake at 24 h ([1]; liver) [%ID/g] | tissue uptake at 1 h ([1]; lung) [%ID/g] | tissue uptake at 4 h ([1]; lung) [%ID/g] | tissue uptake at 24 h ([1]; lung) [%ID/g] | tissue uptake at 1 h ([1]; muscle) [%ID/g] | tissue uptake at 4 h ([1]; muscle) [%ID/g] | tissue uptake at 24 h ([1]; muscle) [%ID/g] | Tumor uptake (H460 (αvβ6^-) xenografts; 1 h p.i.) [%ID/g] | Tumor uptake (H460 (αvβ6^-) xenografts; 4 h p.i.) [%ID/g] | Tumor uptake (H460 (αvβ6^-) xenografts; 24 h p.i.) | tissue uptake at 1 h ([2]; heart) [%ID/g] | tissue uptake at 24 h ([2]; heart) [%ID/g] | also measured |
| --- | --- | --- | --- | --- | --- | --- | --- | --- | --- | --- | --- | --- | --- | --- | --- | --- | --- | --- | --- | --- | --- |
| N=C(N)NCCC[C@@H]1NC(=O)[C@H](CCCCNC(=O)CCC(C(=O)O)N2CCCN3CCN(CCCN(C(CCC(=O)NCCCC[C@@H]4NC(=O)[C@@H](Cc5ccc(O)cc5)NC(=O)[C@H](CC(=O)O)NC(=O)CNC(=O)[C@H](CCCNC(=N)N)NC4=O)C(=O)O)CC3)CC2)NC(=O)[C@@H](Cc2ccc(O)cc2)NC(=O)[C@H](CC(=O)O)NC(=O)CNC1=O (stereo partly drawn) [^64Cu-CB-TE2A-(c(RGDyK))2, metal not drawn, reference compound] | 1.9 ± 0.72 | 0.54 ± 0.26 | 0.42 ± 0.05 | 4.33 ± 1 | 1.8 ± 0.57 | 1.2 ± 0.14 | 2.13 ± 0.25 | 1.61 ± 0.41 | 2.05 ± 0.07 | 0.68 ± 0.02 | 0.48 ± 0.06 | 0.3 ± 0.01 | 0.39 ± 0.06 | 0.31 ± 0.04 | 0.27 ± 0.03 | 1.64 ± 0.20 | 1.09 ± 0.24 | 0.7 %ID/g and 0.72 ± 0.10 %ID/g | 1.67 ± 0.13 | 0.4 ± 0.12 | tissue uptake at 4 h ([2]; heart): 0.58 ± 0.13 %ID/g; tissue uptake at 1 h ([2]; kidney): 3.43 ± 0.25 %ID/g; tissue uptake at 4 h ([2]; kidney): 1.35 ± 0.54 %ID/g; tissue uptake at 24 h ([2]; kidney): 0.93 ± 0.09 %ID/g; tissue uptake at 1 h ([2]; liver): 2.56 ± 0.41 %ID/g; tissue uptake at 4 h ([2]; liver): 1.97 ± 0.19 %ID/g; tissue uptake at 24 h ([2]; liver): 1.65 ± 0.35 %ID/g; tissue uptake at 1 h ([2]; lung): 0.7 ± 0.05 %ID/g; tissue uptake at 4 h ([2]; lung): 0.61 ± 0.17 %ID/g; tissue uptake at 24 h ([2]; lung): 0.39 ± 0.18 %ID/g; tissue uptake at 1 h ([2]; muscle): 0.41 ± 0.04 %ID/g; tissue uptake at 4 h ([2]; muscle): 0.26 ± 0.12 %ID/g; tissue uptake at 24 h ([2]; muscle): 0.24 ± 0.08 %ID/g; Tumor uptake ([3]; 1 h p.i.): 1.58 ± 0.13 %ID/g; Tumor uptake ([3]; 4 h p.i.): 1.07 ± 0.21 %ID/g; Tumor uptake ([3]; 24 h p.i.): 0.7 %ID/g and 0.70 ± 0.29 %ID/g |
| CC(=O)N[C@@H](CCCNC(=N)N)C(=O)NCC(=O)N[C@@H](CC(=O)O)C(=O)N[C@@H](CC(C)C)C(=O)N[C@@H](C)C(=O)N[C@H](C(=O)N[C@@H](CC(C)C)C(=O)N[C@@H](CCCNC(=N)N)C(=O)N[C@@H](CCC(N)=O)C(=O)N[C@@H](CC(C)C)C(=O)NCCOCCOCCOCCOCCOCCOCCOCCOCCOCCOCCOCCOCCC(=O)N[C@@H](CSC1CC(=O)N(CCC(=O)NCCCC[C@H](NC(=O)CCN2C(=O)CC(SC[C@H](NC(=O)CCOCCOCCOCCOCCOCCOCCOCCOCCOCCOCCOCCOCCNC(=O)[C@H](CC(C)C)NC(=O)[C@H](CCC(N)=O)NC(=O)[C@H](CCCNC(=N)N)NC(=O)[C@H](CC(C)C)NC(=O)[C@@H](NC(=O)[C@H](C)NC(=O)[C@H](CC(C)C)NC(=O)[C@H](CC(=O)O)NC(=O)CNC(=O)[C@H](CCCNC(=N)N)NC(C)=O)[C@@H](C)O)C(N)=O)C2=O)C(=O)NCCC(=O)N[C@@H](CSC2CC(=O)N(CCNC(=O)CCC(C(=O)O)N3CCCN4CCN(CCCN(CC(=O)O)CC4)CC3)C2=O)C(N)=O)C1=O)C(N)=O)[C@@H](C)O (stereo partly drawn) [^64Cu-AcD10, metal not drawn] | 0.82 ± 0.05 | 0.5 ± 0.04 | 0.26 | 19.5 ± 0.36 | 18.4 ± 0.92 | 3.43 ± 1.8 | 1.13 ± 0.15 | 0.95 ± 0.06 | 0.71 ± 0.04 | 1.02 ± 0.06 | 0.65 ± 0.02 | 0.24 ± 0.1 | 0.61 ± 0.12 | 0.35 ± 0.05 | 0.19 ± 0.13 | 0.73 ± 0.13 | 0.45 ± 0.11 | 0.35 ± 0.05 %ID/g | 0.78 ± 0.05 | 0.21 ± 0.01 | tissue uptake at 1 h ([2]; kidney): 18.8 ± 2.2 %ID/g; tissue uptake at 4 h ([2]; kidney): 19.1 ± 3.3 %ID/g; tissue uptake at 24 h ([2]; kidney): 5.4 ± 0.87 %ID/g; tissue uptake at 1 h ([2]; liver): 1.08 ± 0.11 %ID/g; tissue uptake at 4 h ([2]; liver): 0.72 ± 0.09 %ID/g; tissue uptake at 24 h ([2]; liver): 0.55 ± 0.1 %ID/g; tissue uptake at 1 h ([2]; lung): 1.33 ± 0.23 %ID/g; tissue uptake at 4 h ([2]; lung): 0.65 ± 0.03 %ID/g; tissue uptake at 24 h ([2]; lung): 0.34 ± 0.08 %ID/g; tissue uptake at 1 h ([2]; muscle): 0.83 ± 0.14 %ID/g; tissue uptake at 4 h ([2]; muscle): 0.42 ± 0.05 %ID/g; tissue uptake at 24 h ([2]; muscle): 0.32 ± 0.1 %ID/g; Tumor uptake ([3]; 1 h p.i.): 1.46 ± 0.15 %ID/g; Tumor/Lung ([3]; 1 h p.i.): 1.1 ± 0.27; Tumor uptake ([3]; 4 h p.i.): 0.98 ± 0.01 %ID/g; Tumor/Lung ([3]; 4 h p.i.): 1.51 ± 0.03; Tumor uptake ([3]; 24 h p.i.): 0.68 ± 0.02 %ID/g; Tumor/Lung ([3]; 24 h p.i.): 2.0 ± 0.08; tumor uptake increase as compared to 64Cu-M10 ([3]; H2009 tumor, all three time points (1 h, 4 h, 24 h p.i.)): ~3 fold |
